# According to publication PMC11526107, “ZC3HAV1 facilitates STING activation and enhances inflammation” (Communications Biology, 2024):
# Assays:
# [1] = biological target: the molecule itself; experiment: native gel or EMSA; native PAGE (7% gel, no SDS, sodium deoxycholate in the cathode buffer) and immunoblot of lysates of mouse peritoneal macrophages after HSV-1, ISD or cGAMP; WT against Zc3hav1^-/- or Zc3hav1 siRNA (dimer and oligomer decreased)
# [2] = biological target: the molecule itself; experiment: native gel or EMSA; native PAGE and immunoblot of lysates of HEK293T cells transfected with STING with or without ZAPS or ZAPL, stimulated with DMXAA
Protein,stoichiometry N [1],stoichiometry N [2]
"Stimulator of interferon genes (STING), endogenous in mouse peritoneal macrophages (natural protein, UniProt Q3TBT3 1-378, looked up, mouse STING, endogenous; also called TMEM173; MITA; source: endogenous, mouse peritoneal macrophage lysate) MPYSNLHPAIPRPRGHRSKYVALIFLVASLMILWVAKDPPNHTLKYLALHLASHELGLLLKNLCCLAEELCHVQSRYQGSYWKAVRACLGCPIHCMAMILLSSYFYFLQNTADIYLSWMFGLLVLYKSLSMLLGLQSLTPAEVSAVCEEKKLNVAHGLAWSYYIGYLRLILPGLQARIRMFNQLHNNMLSGAGSRRLYILFPLDCGVPDNLSVVDPNIRFRDMLPQQNIDRAGIKNRVYSNSVYEILENGQPAGVCILEYATPLQTLFAMSQDAKAGFSREDRLEQAKLFCRTLEEILEDVPESRNNCRLIVYQEPTDGNSFSLSQEVLRHIRQEEKEEVTMNAPMTSVAPPPSVLSQEPRLLISGMDQPLPLRTDLI",2,
"exogenous STING in HEK293T cells (native PAGE, Fig. 3i) (natural protein, UniProt Q3TBT3 1-378, looked up, Probably the same construct as m9 or m10; the text and legend say only 'the indicated plasmids'; source: HEK293T, transfected, in lysate) MPYSNLHPAIPRPRGHRSKYVALIFLVASLMILWVAKDPPNHTLKYLALHLASHELGLLLKNLCCLAEELCHVQSRYQGSYWKAVRACLGCPIHCMAMILLSSYFYFLQNTADIYLSWMFGLLVLYKSLSMLLGLQSLTPAEVSAVCEEKKLNVAHGLAWSYYIGYLRLILPGLQARIRMFNQLHNNMLSGAGSRRLYILFPLDCGVPDNLSVVDPNIRFRDMLPQQNIDRAGIKNRVYSNSVYEILENGQPAGVCILEYATPLQTLFAMSQDAKAGFSREDRLEQAKLFCRTLEEILEDVPESRNNCRLIVYQEPTDGNSFSLSQEVLRHIRQEEKEEVTMNAPMTSVAPPPSVLSQEPRLLISGMDQPLPLRTDLI",,2
